The source of these data is patent US20170096493A1 (EISAI R AND D MANAGEMENT, published 2017).

T1: Human Notch4-NRR domain Fc fusion protein (human, UniProt Q99466 1046-1445, limits assumed)
T1 construct: Expressed in a CHO cell line, used from culture supernatant; 1 is named; also called Human Notch4-NRR Fusion Protein; not shown: Fc
T1 sequence: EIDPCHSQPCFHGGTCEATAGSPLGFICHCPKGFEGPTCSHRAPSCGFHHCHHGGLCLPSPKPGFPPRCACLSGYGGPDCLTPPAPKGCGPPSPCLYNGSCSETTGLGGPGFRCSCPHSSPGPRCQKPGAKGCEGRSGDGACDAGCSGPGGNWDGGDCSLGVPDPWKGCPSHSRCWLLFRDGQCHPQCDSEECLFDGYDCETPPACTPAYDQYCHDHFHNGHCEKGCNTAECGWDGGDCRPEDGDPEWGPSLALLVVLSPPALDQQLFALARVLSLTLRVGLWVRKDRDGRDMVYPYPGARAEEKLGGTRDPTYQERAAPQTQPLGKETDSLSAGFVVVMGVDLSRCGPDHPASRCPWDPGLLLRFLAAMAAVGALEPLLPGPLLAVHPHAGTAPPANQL

B1: HA2L5(Lys-) (antibody, human IgG2, kappa)
heavy: EVQLVESGGGLVQPGGSLRLSCAASGFTFSSYGMSWVRQAPGKGLELVSTINSNGGRTYYANSVKGRFTISRDNSKNTLYLQMGSLRAEDMAVYYCARDQGFAYWGQGTLVTVSSASTKGPSVFPLAPCSRSTSESTAALGCLVKDYFPEPVTVSWNSGALTSGVHTFPAVLQSSGLYSLSSVVTVPSSNFGTQTYTCNVDHKPSNTKVDKTVERKCCVECPPCPAPPAAAPSVFLFPPKPKDTLMISRTPEVTCVVVDVSHEDPEVQFNWYVDGVEVHNAKTKPREEQFNSTFRVVSVLTVVHQDWLNGKEYKCKVSNKGLPAPIEKTISKTKGQPREPQVYTLPPSREEMTKNQVSLTCLVKGFYPSDIAVEWESNGQPENNYKTTPPMLDSDGSFFLYSKLTVDKSRWQQGNVFSCSVMHEALHNHYTQKSLSLSPG
light: DIQMTQSPSSLSASVGDRVTITCKASQDVGTAVAWYQQKPGKSPKLLIYWASTRHTGVPSRFSGSGSGTDFTLTISSLQPEDVATYFCQQYSSYPWTFGQGTKVEIKRTVAAPSVFIFPPSDEQLKSGTASVVCLLNNFYPREAKVQWKVDNALQSGNSQESVTEQDSKDSTYSLSSTLTLSKADYEKHKVYACEVTHQGLSSPVTKSFNRGEC
notes: Humanized IgG2 (V234A, G237A)/κ; also called No. 33
B2: HA2L6(Lys-) (antibody, human IgG2, kappa, V domains shown)
VH: EVQLVESGGGLVQPGGSLRLSCAASGFTFSSYGMSWVRQAPGKGLELVSTINSNGGRTYYANSVKGRFTISRDNSKNTLYLQMGSLRAEDMAVYYCARDQGFAYWGQGTLVTVSS
VL: EIVMTQSPATLSVSPGERATLSCKASQDVGTAVAWYQQKPGQSPRLLIYWASTRHTGIPARFSGSGSGTEFTLTISSLQSEDFAVYFCQQYSSYPWTFGQGTKVEIKR
notes: Humanized IgG2 (V234A, G237A)/κ; also called No. 40
B3: HK3L6(Lys-) (antibody, human IgG2, kappa, V domains shown)
VH: B2 VH with S49A, A61P, N62D, R87K
VL: B2 VL
notes: Humanized IgG2 (V234A, G237A)/κ; also called No. 42
B4: HA2L5 (antibody, human IgG2, kappa)
heavy: EVQLVESGGGLVQPGGSLRLSCAASGFTFSSYGMSWVRQAPGKGLELVSTINSNGGRTYYANSVKGRFTISRDNSKNTLYLQMGSLRAEDMAVYYCARDQGFAYWGQGTLVTVSSASTKGPSVFPLAPCSRSTSESTAALGCLVKDYFPEPVTVSWNSGALTSGVHTFPAVLQSSGLYSLSSVVTVPSSNFGTQTYTCNVDHKPSNTKVDKTVERKCCVECPPCPAPPAAAPSVFLFPPKPKDTLMISRTPEVTCVVVDVSHEDPEVQFNWYVDGVEVHNAKTKPREEQFNSTFRVVSVLTVVHQDWLNGKEYKCKVSNKGLPAPIEKTISKTKGQPREPQVYTLPPSREEMTKNQVSLTCLVKGFYPSDIAVEWESNGQPENNYKTTPPMLDSDGSFFLYSKLTVDKSRWQQGNVFSCSVMHEALHNHYTQKSLSLSPGK
light: B1 light
notes: Humanized IgG2 (V234A, G237A)/κ; also called No. 30
B5: HK3L5 (antibody, human IgG2, kappa)
heavy: B4 heavy with S49A, A61P, N62D, R87K
light: B1 light
notes: Humanized IgG2 (V234A, G237A)/κ; also called No. 20
B6: HK2L5 (antibody, human IgG2, kappa)
heavy: B4 heavy with A61P, N62D
light: B1 light
notes: Humanized IgG2 (V234A, G237A)/κ; also called No. 15
B7: HK2L4 (antibody, human IgG2, kappa)
heavy: B4 heavy with A61P, N62D
light: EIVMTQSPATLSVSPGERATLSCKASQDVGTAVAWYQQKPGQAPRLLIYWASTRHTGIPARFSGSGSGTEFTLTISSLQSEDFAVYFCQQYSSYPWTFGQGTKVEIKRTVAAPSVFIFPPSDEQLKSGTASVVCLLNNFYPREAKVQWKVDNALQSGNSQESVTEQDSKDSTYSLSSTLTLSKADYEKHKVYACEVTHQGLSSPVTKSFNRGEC
notes: Humanized IgG2 (V234A, G237A)/κ; also called No. 14
B8: HK3L4 (antibody, human IgG2, kappa)
heavy: B4 heavy with S49A, A61P, N62D, R87K
light: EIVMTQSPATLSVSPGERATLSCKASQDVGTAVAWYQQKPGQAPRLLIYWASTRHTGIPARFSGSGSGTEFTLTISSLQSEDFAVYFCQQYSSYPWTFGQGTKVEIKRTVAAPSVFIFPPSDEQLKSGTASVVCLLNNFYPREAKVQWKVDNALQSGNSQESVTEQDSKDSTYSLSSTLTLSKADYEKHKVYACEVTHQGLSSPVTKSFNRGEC
notes: Humanized IgG2 (V234A, G237A)/κ; also called No. 19
B9: HK3L3 (antibody, human IgG2, kappa)
heavy: B4 heavy with S49A, A61P, N62D, R87K
light: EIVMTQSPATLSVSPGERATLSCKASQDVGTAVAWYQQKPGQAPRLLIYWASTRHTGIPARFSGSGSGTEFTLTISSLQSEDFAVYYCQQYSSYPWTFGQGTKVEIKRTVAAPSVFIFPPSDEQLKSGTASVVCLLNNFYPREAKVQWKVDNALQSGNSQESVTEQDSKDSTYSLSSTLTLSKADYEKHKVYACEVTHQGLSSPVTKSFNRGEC
notes: Humanized IgG2 (V234A, G237A)/κ; also called No. 18
B10: HA2L3 (antibody, human IgG2, kappa)
heavy: B4 heavy
light: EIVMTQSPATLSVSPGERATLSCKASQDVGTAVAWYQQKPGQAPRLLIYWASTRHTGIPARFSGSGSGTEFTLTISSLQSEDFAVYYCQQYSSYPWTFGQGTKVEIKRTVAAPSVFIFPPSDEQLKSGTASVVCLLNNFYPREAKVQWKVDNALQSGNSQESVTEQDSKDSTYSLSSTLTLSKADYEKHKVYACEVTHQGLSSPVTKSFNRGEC
notes: Humanized IgG2 (V234A, G237A)/κ; also called No. 28
B11: HK2L3 (antibody, human IgG2, kappa)
heavy: B4 heavy with A61P, N62D
light: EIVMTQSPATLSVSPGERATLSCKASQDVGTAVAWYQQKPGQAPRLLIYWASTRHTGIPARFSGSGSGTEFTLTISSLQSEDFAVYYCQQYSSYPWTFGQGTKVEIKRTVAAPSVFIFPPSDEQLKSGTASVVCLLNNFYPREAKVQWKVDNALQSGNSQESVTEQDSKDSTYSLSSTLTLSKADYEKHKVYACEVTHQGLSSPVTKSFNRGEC
notes: Humanized IgG2 (V234A, G237A)/κ; also called No. 13
B12: HA2L4 (antibody, human IgG2, kappa)
heavy: B4 heavy
light: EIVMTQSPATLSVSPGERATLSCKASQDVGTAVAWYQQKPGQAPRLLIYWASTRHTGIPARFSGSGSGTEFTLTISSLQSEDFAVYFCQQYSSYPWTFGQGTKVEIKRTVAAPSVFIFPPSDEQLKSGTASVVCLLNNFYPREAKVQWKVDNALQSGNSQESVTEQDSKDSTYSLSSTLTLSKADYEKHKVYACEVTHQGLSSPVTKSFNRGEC
notes: Humanized IgG2 (V234A, G237A)/κ; also called No. 29
B13: HA1L5 (antibody, human IgG2, kappa, V domains shown)
VH: B2 VH with L47Y
VL: DIQMTQSPSSLSASVGDRVTITCKASQDVGTAVAWYQQKPGKSPKLLIYWASTRHTGVPSRFSGSGSGTDFTLTISSLQPEDVATYFCQQYSSYPWTFGQGTKVEIKR
notes: Humanized IgG2 (V234A, G237A)/κ; also called No. 25
B14: HA1L2 (antibody, human IgG2, kappa, V domains shown)
VH: B2 VH with L47Y
VL: B13 VL with S43V
notes: Humanized IgG2 (V234A, G237A)/κ; also called No. 22
B15: HK1L4 (antibody, human IgG2, kappa, V domains shown)
VH: B2 VH with L47Y, A61P, N62D
VL: B2 VL with S43A
notes: Humanized IgG2 (V234A, G237A)/κ; also called No. 9
B16: HK1L3 (antibody, human IgG2, kappa, V domains shown)
VH: B2 VH with L47Y, A61P, N62D
VL: B2 VL with S43A, F87Y
notes: Humanized IgG2 (V234A, G237A)/κ; also called No. 8
B17: HK2L2 (antibody, human IgG2, kappa, V domains shown)
VH: B2 VH with A61P, N62D
VL: B13 VL with S43V
notes: Humanized IgG2 (V234A, G237A)/κ; also called No. 12
B18: HK2L1 (antibody, human IgG2, kappa, V domains shown)
VH: B2 VH with A61P, N62D
VL: B13 VL with S43V, F87Y
notes: Humanized IgG2 (V234A, G237A)/κ; also called No. 11
B19: HK3L1 (antibody, human IgG2, kappa, V domains shown)
VH: B2 VH with S49A, A61P, N62D, R87K
VL: B13 VL with S43V, F87Y
notes: Humanized IgG2 (V234A, G237A)/κ; also called No. 16
B20: HK3L2 (antibody, human IgG2, kappa, V domains shown)
VH: B2 VH with S49A, A61P, N62D, R87K
VL: B13 VL with S43V
notes: Humanized IgG2 (V234A, G237A)/κ; also called No. 17
B21: HA2L2 (antibody, human IgG2, kappa, V domains shown)
VH: B2 VH
VL: B13 VL with S43V
notes: Humanized IgG2 (V234A, G237A)/κ; also called No. 27
B22: HA2L1 (antibody, human IgG2, kappa, V domains shown)
VH: B2 VH
VL: B13 VL with S43V, F87Y
notes: Humanized IgG2 (V234A, G237A)/κ; also called No. 26

Numbering of substitutions follows the chain as printed. Numbers in names are those of the source.

One assay deals with T1, Human Notch4-NRR domain Fc fusion …. The assay can be described thus: SPR (Biacore) as for Table 30; Notch4-NRR-Fc captured, antibody injected; averaged, N=3. The procedure: (§1) Kinetic analysis of further anti-Notch4 inhibitory humanized antibodies was carried out as follows. Human Notch4-NRR domain Fc fusion proteins were expressed with a CHO cell line. The antigen in the culture supernatant was captured by the anti-human Notch4 antibody fixed on a CM5 sensor chip that recognizes different epitopes of human Notch4. The humanized anti-human Notch4 antibody was then injected onto the sensor chip at various concentrations. The interaction and disassociation constants thereof were calculated according to manufacturer's instructions.
Background: SPR reads the build-up and loss of mass on a sensor chip optically.
For B1, the Kd came out at 0.776 nM, the off-rate constant (koff) worked out at 0.0015 s⁻¹ and the on-rate constant (kon) came to 2.01e+06 M⁻¹ s⁻¹.

In the case of B2, the Kd came out at 0.838 nM, the koff was determined as 0.00151 s⁻¹ and the kon is 1.83e+06 M⁻¹ s⁻¹.

The molecule B3 returned a dissociation constant Kd of 0.766 nM, an off-rate (koff) of 0.00114 s⁻¹ and an association rate constant (kon) of 1.51e+06 M⁻¹ s⁻¹.

The next assay shares this target. In words: SPR (Biacore) as for Table 30; Notch4-NRR-Fc captured, antibody injected; averaged, N=6. The procedure:
as §1
With B4, the Kd came out at 0.612 nM, the koff came out at 0.00136 s⁻¹ and the kon stood at 2.49e+06 M⁻¹ s⁻¹.

B5 came in with a Kd of 0.601 nM, an off-rate constant (koff) of 0.00102 s⁻¹ and a kon of 1.72e+06 M⁻¹ s⁻¹.

Molecule B6 displayed a Kd of 0.549 nM, a koff of 0.00112 s⁻¹ and a kon of 2.07e+06 M⁻¹ s⁻¹.

The molecule B7 displayed an equilibrium dissociation constant (Kd) of 0.634 nM, a koff of 0.00117 s⁻¹ and an on-rate constant (kon) of 1.89e+06 M⁻¹ s⁻¹.

B8 displayed a Kd of 0.755 nM, a dissociation rate constant (koff) of 0.0012 s⁻¹ and a kon of 1.61e+06 M⁻¹ s⁻¹.

The molecule B9 gave a Kd of 0.897 nM, a koff of 0.00104 s⁻¹ and a kon of 1.22e+06 M⁻¹ s⁻¹.

B10 yielded a Kd of 0.727 nM, a koff of 0.00137 s⁻¹ and a kon of 1.95e+06 M⁻¹ s⁻¹.

In the case of B11, the affinity, expressed as Kd, was 0.682 nM; the koff came to 0.00109 s⁻¹; the kon was 1.62e+06 M⁻¹ s⁻¹.

The molecule B12 came in with a Kd of 0.738 nM, an off-rate constant (koff) of 0.00169 s⁻¹ and a kon of 2.33e+06 M⁻¹ s⁻¹.

The target is the same in a further assay. In words: SPR (Biacore) as for Table 30; Notch4-NRR-Fc captured, antibody injected; averaged, N=2. The protocol: as §1
For the molecule B13, the Kd was 7.2 nM, the off-rate constant (koff) came out at 0.0452 s⁻¹ and the kon came out at 6.36e+06 M⁻¹ s⁻¹.

Molecule B14 showed a Kd of 18.6 nM, an off-rate (koff) of 0.0122 s⁻¹ and a kon of 649000 M⁻¹ s⁻¹.

As for B15, the Kd worked out at 4.34 nM, the off-rate constant (koff) turned out to be 0.0118 s⁻¹ and the on-rate (kon) amounted to 2.78e+06 M⁻¹ s⁻¹.

B16 displayed a dissociation constant (Kd) of 4.87 nM, an off-rate constant (koff) of 0.0196 s⁻¹ and a kon of 3.71e+06 M⁻¹ s⁻¹.

A further assay shares this target. The assay can be described thus: SPR (Biacore) as for Table 30; Notch4-NRR-Fc captured, antibody injected; averaged, N=4. The protocol:
as §1
B17 had a Kd of 1.38 nM, an off-rate constant (koff) of 0.00157 s⁻¹ and a kon of 1.23e+06 M⁻¹ s⁻¹.

On to B18, for which the Kd was 1.84 nM, the off-rate constant (koff) was 0.0016 s⁻¹ and the on-rate (kon) was determined as 875000 M⁻¹ s⁻¹.

Molecule B19 displayed a Kd of 1.76 nM, a koff of 0.00133 s⁻¹ and an on-rate (kon) of 783000 M⁻¹ s⁻¹.

Molecule B20 gave a Kd of 1.29 nM, a koff of 0.00145 s⁻¹ and a kon of 1.13e+06 M⁻¹ s⁻¹.

For B21, binding was put at a Kd of 1.41 nM, the dissociation rate constant (koff) is 0.00222 s⁻¹ and the kon turned out to be 1.63e+06 M⁻¹ s⁻¹.

The molecule B22 returned a Kd of 1.76 nM, a koff of 0.00166 s⁻¹ and an on-rate (kon) of 949000 M⁻¹ s⁻¹.

In general, Kd refers to the free concentration of one partner at which half of the binding sites on the other are occupied at equilibrium, for simple one-to-one binding. Low values mean higher affinity, high ones lower affinity. One may read the koff as a measure of how fast the partners let go of each other. A lower koff goes with slow dissociation. What is called kon is the rate constant with which the complex forms. High values mean fast association, low ones slow association.
